Data from patent US20180222961A1 (IMMATICS BIOTECHNOLOGIES, published 2018).

Experiments:
[1] = target: T1, HLA-B*44:02 (human); assay: UV-exchange b2m ELISA; exchange-yield grade
T1 construct: also called peptide-receptive MHC molecules
Summary of the method: (§1)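 Peptide-MHC complexes formed by UV-triggered exchange of a cleavable ligand for the test peptide. Exchange yield measured on streptavidin-coated plates by HRP anti-β2m ELISA (1 h, 37 °C; A450) on 100-fold diluted samples. Refolded HLA-A*02:01 monomers at 15-500 ng/ml served as standards.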

[2] = target: T2, HLA-A*02:01 (human); assay: UV-exchange b2m ELISA; exchange-yield grade
T2 construct: also called peptide-receptive MHC molecules
Summary of the method: as §1

peptide exchange yield [1]	peptide exchange yield [2]	Binder
20 to 50%	–	HESSSHHDL
–	10 to 20%	PLPRPGAVL
10 to 20%	–	EEQYIAQF
–	> 75%	ALFKAWAL
–	> 75%	MMEEMIFNL
–	> 75%	GLLSLTSTLYL
–	> 75%	VLQGLLRSL
–	> 75%	YLEDTDRNL
–	10 to 20%	VSSSLTLKV
–	50 to 75%	SVTESTHHL
–	20 to 50%	SLLDLYQL
20 to 50%	–	SEVPTGTTA
–	> 75%	KLFDTQQFL
20 to 50%	–	REPGDIFSEL
–	50 to 75%	STIPALHEI
–	10 to 20%	DTDSSVHVQV
20 to 50%	–	HEFGHVLGL
–	10 to 20%	ISVPAKTSL
–	> 75%	KVVSVLYNV
–	> 75%	TTYEGSITV
–	> 75%	SLLLPSIFL
10 to 20%	–	TEFPLFSAA
–	> 75%	SLPRFQVTL
20 to 50%	–	GEPATTVSL
–	> 75%	IMFDDAIERA
–	> 75%	RLWDWVPLA
–	10 to 20%	FAHHGRSL

peptide exchange yield [1]	peptide exchange yield [2]	Binder
10 to 20%	–	SDSQVRAF
–	> 75%	KVLGVNVML
–	50 to 75%	YASEGVKQV
–	> 75%	TISSLTHEL
20 to 50%	–	REKFIASVI
–	50 to 75%	YTFRYPLSL
–	> 75%	YLTDLQVSL
–	50 to 75%	RMTTQLLLL
–	> 75%	FLDPDRHFL
–	> 75%	FLIEELLFA
–	> 75%	ALIYNLVGI
–	50 to 75%	SAIPFSMTL
–	20 to 50%	GVATRVDAI
20 to 50%	–	REEFVSIDHL
–	> 75%	GLLQELSSI
20 to 50%	–	AEHFSMIRA
–	> 75%	ALMRLIGCPL
20 to 50%	–	KEAIREHQM
10 to 20%	–	FESHSTVSA
20 to 50%	–	TEAVVTNEL
–	> 75%	RLLDFINVL
–	50 to 75%	MIPTFTALL
–	> 75%	YMVHIQVTL
–	20 to 50%	RQPNILVHL
20 to 50%	–	AEQDPDELNKA
–	> 75%	TLLKALLEI
10 to 20%	–	PEKTTHSF
